Target: DDX3X D1 WT (Homo sapiens, UniProt O00571 135-407)
Assay: NMR CSP

DDX3X D1 WT, sequence (O00571 135-407): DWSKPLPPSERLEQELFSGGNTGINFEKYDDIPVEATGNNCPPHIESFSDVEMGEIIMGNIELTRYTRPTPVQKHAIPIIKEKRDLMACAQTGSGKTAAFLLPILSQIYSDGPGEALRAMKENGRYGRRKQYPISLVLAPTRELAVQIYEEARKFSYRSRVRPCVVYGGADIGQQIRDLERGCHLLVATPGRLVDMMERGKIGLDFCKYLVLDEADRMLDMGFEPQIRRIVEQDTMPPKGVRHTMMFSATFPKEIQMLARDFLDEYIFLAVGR

B1: blunt 14-mer dsRNA (NMR) (dsRNA)
RNA 1: GGGCGGGCCCGCCC
RNA 2: GGGCGGGCCCGCCC
  binding result: binds

Source: paper PMC4402148
